For experiment [1], the target named is HLA-DP4 molecule DP402 (DPA1*0103/DPB1*0402) (human) (UniProt P20036). Nature of the experiment: competition ELISA.
The target of experiment [2] is HLA-DP4 molecule DP401 (DPA1*0103/DPB1*0401) (human) (UniProt P20036). Nature of the experiment: competition ELISA.
For experiment [3], the target named is HLA-DP4 molecule DP402 (DPA1*0103/DPB1*0402) (human) (UniProt P20036). Nature of the experiment: competition ELISA, tracer bUNK1. (In general: In an ELISA, binding on a coated surface is turned into a signal by an enzyme label.)
In experiment [4] the target is HLA-DP4 molecule DP401 (DPA1*0103/DPB1*0401) (human) (UniProt P20036). The experiment is described as follows: competition ELISA, tracer bUNK1.
The target of experiment [5] is HLA-DP4 molecule DP402 (DPA1*0103/DPB1*0402) (human) (UniProt P20036). The experiment is described as follows: competition ELISA; capped, '>10 000' in Table VII.
In experiment [6] the target is HLA-DP4 molecule DP401 (DPA1*0103/DPB1*0401) (human) (UniProt P20036). The experiment is described as follows: competition ELISA; capped, '>10 000' in Table VII.

Where only a bound is given, the exact number is not on record here.

Regarding Api m1 65-82 (peptide), the half-maximal inhibitory concentration (IC50) (in general, the concentration at which inhibition is half-maximal) in experiment [1] stood at 6.5 µM; in experiment [2] it was 50 µM; in experiment [3], 6.5 µM; in experiment [4], 50 µM. In addition, in experiment [3], the relative binding activity vs UNK1 (IC50 ratio) is 371 fold.

For the substance Api m1 69-86 (peptide), the half-inhibitory concentration (IC50) in experiment [3] was more than 10 µM; in experiment [4] it was more than 10 µM; in experiment [5], more than 10 µM; in experiment [6] it was 10 µM.

For Api m1 73-90 (peptide), the half-maximal inhibitory concentration (IC50) in experiment [3] is more than 10 µM; in experiment [4], more than 10 µM; in experiment [5] it was more than 10 µM; in experiment [6], 10 µM.

Api m1 81-98 (peptide): the half-inhibitory concentration (IC50) in experiment [2] and in experiment [4] was 2.25 µM each time.

The record behind these values is patent publication US20050059107A1.
